Data published in the supplement of paper PMC12636428.

Test system: Saccharomyces cerevisiae
Experiment: transcriptional activation domain activity (GFP:mCherry ratio, weighted mean of sorted bins, harmonized to initial dataset scale) (arbitrary fluorescence ratio units); higher = stronger transcriptional activation
Conditions: beta-estradiol 1 µM; induction time 4 h
Outline: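 The listed activation activity is a read-weighted mean of bin median fluorescence, averaged across barcodes and linearly mapped onto the initial dataset scale. Barcoded tiles, fused to an estradiol-inducible synthetic transcription factor, were integrated at URA3 in yeast diploids bearing a GFP reporter. Cells were held 4 hours at 30 °C in SC with 1 uM beta-estradiol, sorted into 8 GFP:mCherry bins, and sequenced, and tiles with fewer than 50 reads were excluded.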

With “QLNLVNHFYQFSLRFFLDIFDYILHHNPNLKGVTDYSRRRAILLNDLFLVVYQ” the “transcriptional activation domain activity” value was 55500.

With “SRDRDRKEKTDKTDKDRERDREKERRGEREREREKERERERAERHRERDRERE” the “transcriptional activation domain activity” value was 32800.

“MLLNVFFFFPSSILGSFLYTDLFYFGFFSLIMLFPFKLPCIQPTFFFFTPSFI” was tested, and the “transcriptional activation domain activity” value was 44500.

“KAQDDKEADDSPKKKPAKRSRKKAAADDGDDDEEEAQPAKKKAKGGRKSKAAA” was tested, and the “transcriptional activation domain activity” value was 39400.

With “MHCSLPSGLSFGCQYALVHLLFVRRISIWGLLILQIFLGTRVFYHVFILRVVR” the “transcriptional activation domain activity” value was 62700.

In the case of “LCLPFFLSLLPFFQSWRYVNISLLLFFYSSSIFSPSFPFIYYFTVFFLSFLLL”, the “transcriptional activation domain activity” value is reported as 29900.

For “GDERSRKAGEKETSRGGRGAGGGRRETGRKEKPGGKAGKGGRTRAGGRGREKK”, the “transcriptional activation domain activity” value was 21800.

For “HVERGRDVTKGFVKCHTHMRTTCVGSIRFSHAASFAPSVCLGVGVKSLDRRPL”, the “transcriptional activation domain activity” value was 37300.

With “VIIQLQKLFLVSISLKLVQRISSLNQLFKTSVASLPAIGNLFLLWATLFIFFA” the “transcriptional activation domain activity” value was 53000.

In the case of “MTLLLLLLLLLFSYNFTYIYLFFLLLSFHLCVSLYTTFTLNFIFLYTSLYILD”, the “transcriptional activation domain activity” value is reported as 74200.

For “QYETPAPKDFLDDFVSLTDFFTFFDDPVDLYDVGSFAFQQPHSMNIDFDPAML”, the “transcriptional activation domain activity” value was 152000.

With “AVAAAVAAIAAVAAEIKTVPAQAQEQEQEQEQEQAQVQVQVQAQAQPQQQQQA” the “transcriptional activation domain activity” value was < 6570.

For “MAEEQPAKPKKHRAAKPKVSTGCVTCKQRRIKCGEEKPHCMRCVKTGRECGGY”, the “transcriptional activation domain activity” value was 41800.

For “ESVRQHIVTETKNRVETYLAHCNPIVPHQRLTLLLARLLLRKLDFVTRLQWIL”, the “transcriptional activation domain activity” value was 50300.

In the case of “HTRSLRYGKLRNGTLVRVPPTLIVRLKSHFHSLPCGVDLVLGLNGYIWVCMHI”, the “transcriptional activation domain activity” value is reported as 52700.

With “KRKDGNGGAGREMKRGERDASPAKGKGASAARGRGGRGRGGRRGGSRGGKKRG” the “transcriptional activation domain activity” value was 32600.

For “LPNVCLILPVYLRALVLNTLQVDKDQRTLLYESIRGHIVTLRGCKTGSKVIWL”, the “transcriptional activation domain activity” value was 60800.

In the case of “KYEEQEDKDEEEEEKEEEEEEEEEEEEEEEGKRGEGKKATAKRRSKGSAYGGK”, the “transcriptional activation domain activity” value is reported as 17300.

In the case of “TLPFQIFMICDLTVPLKLNGFLVNGSLNLLGIMMVRVTFSCLGLAQLFQLIIC”, the “transcriptional activation domain activity” value is reported as 62100.

For “TSSPSAISSTSVNTLLVAGSEGTDAHVKTVGEQLKTRMGVKGGGKGTRWSGKM”, the “transcriptional activation domain activity” value was 57300.

“CLCLILLALLAVELMALFVVITLVILLLIVIVLSLILLFANLMLPLVFLLLYI” was tested, and the “transcriptional activation domain activity” value was 26400.

For “KASARKKRAPKKSDEGKRGEKEGNRSANGSNDEDDDRDSSSSSSSNDEATSRS”, the “transcriptional activation domain activity” value was 11200.

With “GGEEEEGAPKRPAKKARPSVESEAEVKEEEEEEDAVKPKRGRRTAKSASSSRK” the “transcriptional activation domain activity” value was 27300.

For “YLYLCLQLLYYCRYCVFAIYTCHLPFAYTCMLMLLATGPYFYGLFICLRYLCC”, the “transcriptional activation domain activity” value was 24900.

With “LLKGLTLRNPAILKLEEDEDEAALLTQYAVKCSEVDKFLLTYVILKLKLIKGK” the “transcriptional activation domain activity” value was 33200.

For “DLLLEGYDTNRLLVVIPFTCKVLEQAAKSMVFKPPNPWLMAIVKLLAELYLYA”, the “transcriptional activation domain activity” value was 73900.

With “MRWTSTISFFLLPLGFFFSFHPFHIPFSTFLVSFEICIFFLSFFFSFLPIFLF” the “transcriptional activation domain activity” value was 58500.

With “APSIRYRLPFDSLLFVFCGTLLCTLIFLREALIPHFPCWVLLWGAYILLPLCF” the “transcriptional activation domain activity” value was 15900.

In the case of “MYLAVHWFYISGCTHHIFMIFLFMSKFLCLLMLLLSSCVVLSSFRTIFVLSFS”, the “transcriptional activation domain activity” value is reported as 62700.

“GEAGAEQGEHGARRARTRGAGCVRGRGREVGEGAGARRRVCGRRCEREARAHN” was tested, and the “transcriptional activation domain activity” value was 23400.
